Assays:
[1] = target: RSC3 probe; experiment: ELISA-type plate assay (OD450), mAb titrated on RSC3 [panel VRC13b]
[2] = target: RSC3 probe; experiment: ELISA-type plate assay (OD450), mAb titrated on RSC3 [panel VRC13c]
[3] = target: RSC3 probe; experiment: ELISA-type plate assay (OD450), mAb titrated on RSC3 [panel VRC13e]
[4] = target: RSC3 probe; experiment: ELISA-type plate assay (OD450), mAb titrated on RSC3 [panel VRC13f]
[5] = target: RSC3 probe; experiment: ELISA-type plate assay (OD450), mAb titrated on RSC3 [panel VRC13g]
[6] = target: RSC3 probe; experiment: ELISA-type plate assay (OD450), mAb titrated on RSC3 [panel VRC13d]

B1: VRC13b (antibody, V domains shown)
VH: QVQLVQSGTALKSPGSSAKLSCTVLGDEFGTYFISWIRQAPGQGLEWVGGIVPHSQLQSSAQKFHGRIIISAGAGVTPPVVSLQLTNLTFEDTGTYFCARERGRHRDPKTGDALRGRYFDFWGRGTGVSVSA
VL: QSVLTQPAFVSGSPGQSITLSCTLGTEDVSWYQQRPNSAPRLIIFDVKKRPSDVSDRFSGHNSDTAAFLTISELRPEDEAEYFCTSWPYRFGRGTKVDVA
[1]
  EC50 (read off the curve): 0.02 µg/mL

B2: VRC13c (antibody, V domains shown)
VH: QLQLDQPGAAMKSLGSSLTITCRVSGDDLGSFHFGTYFMIWVRQGPGQGLEYMGGILPSTKTPTYAHKFRGRVSISAPGVPPVLSLALTNLTYDDTATYFCARERGRHFEPKNRDHLEGKFLDLWGRGTFVRVSP
VL: QSVLTQPASVSGSPGQSINISCAGRSDRVSWYQQRPNGVPKLLLFDVYRRPSGVSDRFSGSHSDDTAFLTISGLQTDDEADYYCTSHPYAFGPGTKVNVL
[2]
  EC50 (read off the curve): 0.02 µg/mL

B3: VRC13e (antibody, V domains shown)
V domain 1: QPYIVQSGPAVKGAGSSVTVTCKVDGDDDGIFSFGTYFMVWVRQAPGQGLQYMGGLVPSYAPTYAHKFEGRITISAAGTPPVVSLTLLNLTNDDAATYFCARERGRHYDSKTRENRRGRYFDMWGRGTRITVSP
V domain 2: QSVLTQPASVSGSPGQTISISCSGTFGSDSVSWYQQYPNSAPTLIIFDVHRRPSGISTRFSGSTSGDTASLTISTLHREDEAYYYCTSHPYDFGGGTYVIVL
[3]
  EC50 (read off the curve): 0.02 µg/mL

B4: VRC13f (antibody, V domains shown)
V domain 1: QPYIVQSGPAVKGAGSSVTVTCRVDGDDDGIFNFGTYFMVWVRQAPGQGLQYMGGLVPSYAPTYAHKFEGRITISAAGTPPVVSLTLINLTNADAATYFCARERGRHYDSKTRENRRGRYFDMWGRGTRITVSP
V domain 2: QSVLTQPASVSGSPGQTISISCSGTFGSDSVSWYQQFPNSAPTLIIFDVHRRPSGISTRFSGSTSGDTASLTISTLHREDEAFYYCTSHPYDFGGGTYVIVL
[4]
  EC50 (read off the curve): 0.02 µg/mL

B5: VRC13g (antibody, V domains shown)
VH: QIELRQSGAAMKSPGSSVKLSCTVLGENFGTYFISWIRQAPGQGLEWVGGIVPHSQLQSSAQKFHGRIKISGGGTPPVVSLELTNVTFDDTGTYFCARERGRHVEPKTGDRLAGRYFDIWGRGTGLRVSP
VL: QSVLTQPAFVSGSPGQSITISCTVGTTDVSWYQQRPNSAPRLIIFDVKKRPSGVSDRFSGSSSDNAAFLTIAGLRPEDEAEYYCTSWPYRFGRGTKVDVG
[5]
  EC50 (read off the curve): 0.02 µg/mL

B6: VRC13d (antibody, V domains shown)
VH: QVQLVQSGAVVKSPGSSAKLSCRLLGDEFGTYFISWIRQAPGRGLEWVGGIVPHSQLQSSAQKFHGRFFITGGVTPPIIFLQLTNVTFEDTGTYFCARERGRHRDPKTGKSLRGRYFDFWGRGTGVTVSP
VL: QSVLTQPAFVSASPGQSITLSCNLGTDYVSWYQQRPSSAPRLIIFDVKNRPSGVSDRFSGYNSDTAAFLTISGLQPEDEAEYYCTSWPYNFGPGTKVDVT
[6]
  EC50 (read off the curve): 0.02 µg/mL

From patent US20150044137A1
